Assay [1] deals with T1, His6-Ras1.G17V (1-172), GTP-loaded (fission yeast (Schizosaccharomyces …, UniProt P08647 1-172, G17V)).
T1 construct: Loaded with GTP by EDTA-mediated exchange (8 mM GTP, 12 mM EDTA, 37 C, 10 min; stopped with 20.5 mM MgCl2) just before the pull-down; Cloned in vector pLEICS1; also called Ras1.G17V^GTP; source: E. coli BL21 Rosetta, purified (Ni Sepharose 6 Fast Flow), dialysed, loaded with GTP
T1 sequence (looked up): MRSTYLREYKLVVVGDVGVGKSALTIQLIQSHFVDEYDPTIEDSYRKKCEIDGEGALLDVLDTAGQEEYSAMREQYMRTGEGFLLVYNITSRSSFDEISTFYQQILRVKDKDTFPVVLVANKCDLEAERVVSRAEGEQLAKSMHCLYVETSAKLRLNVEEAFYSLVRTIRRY
As to the kind of experiment: pull-down; GST fusion on glutathione sepharose beads incubated with GTP-loaded Ras1.G17V (1-172) in buffer A (20 mM Tris-Cl pH 7.5, 100 mM NaCl, 5 mM MgCl2, 1 mM beta-mercaptoethanol), 4 C, 30 min; bound fraction on SDS-PAGE, InstantBlue stain. The conditions noted are these: both partners purified.

Assay [2] deals with T1, His6-Ras1.G17V (1-172), GTP-loaded. Nature of the assay: pull-down; competition: GST-Byr2 (65-180) on glutathione beads incubated with GTP-loaded Ras1.G17V (1-172) with or without Scd1 (760-872) fragment, buffer A, 4 C, 30 min; Ras1.G17V band on SDS-PAGE quantified with Fiji. The conditions noted are these: both partners purified.

B1: GST-Byr2 (65-180) (domain or fragment, UniProt P28829 65-180, looked up)
chain: REFPRPCILRFIACNGQTRAVQSRGDYQKTLAIALKKFSLEDASKFIVCVSQSSRIKLITEEEFKQICFNSSSPERDRLIIVPKEKPCPSFEDLRRSWEIELAQPAALSSQSSLSP
notes: Cloned in vector pLEICS4; also called GST-Byr2-RBD; Byr2-RBD; source: E. coli BL21 Rosetta, purified on glutathione sepharose 4B (kept on the beads); not shown: GST, N-terminal, kept
With B1, the binding result in assay [1] was “binds”.

B2: GST-Scd1 (760-872) (domain or fragment, UniProt P40995 760-872, looked up)
chain: SSSTSTSLSVRNTTNVKIRLRLHEVSLVLVVAHDITFDELLAKVEHKIKLCGILKQAVPFRVRLKYVDEDGDFITITSDEDVLMAFETCTFELMDPVHNKGMDTVSLHVVVYF
notes: Cloned in vector pLEICS4; also called GST-Scd1-PB1; Scd1-PB1; source: E. coli BL21 Rosetta, purified on glutathione sepharose 4B (kept on the beads); not shown: GST, N-terminal, kept
As for B2, the binding result in assay [1] is recorded as “binds”.

B3: Scd1 (760-872) fragment (domain or fragment, UniProt P40995 760-872, looked up)
chain: SSSTSTSLSVRNTTNVKIRLRLHEVSLVLVVAHDITFDELLAKVEHKIKLCGILKQAVPFRVRLKYVDEDGDFITITSDEDVLMAFETCTFELMDPVHNKGMDTVSLHVVVYF
notes: also called Scd1-PB1 (cleaved from GST); not shown: GST, N-terminal, cleaved
As for B3, the binding result in assay [2] is listed as “binds”.

(Values after doi:10.1101/2025.03.06.641927, “Constitutively active RAS prolongs Cdc42 signalling while attenuating MAPK signalling during fission yeast mating” (bioRxiv, 2025).)
